US20250000976A1 (NATIONAL RESEARCH COUNCIL OF CANADA, published 2025)

T1: BCMA_B5x Gln38_Ala54 (human, UniProt Q02223)
T1 construct: limits given in the sample name
T1 yeast-displayed fusion (looked up): QRYCNASVTNSVKGTNA

T2: BCMA_B15x Ile22_Ala43 (human, UniProt Q02223)
T2 construct: limits given in the sample name
T2 yeast-displayed fusion (looked up): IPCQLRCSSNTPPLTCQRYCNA

T3: BCMA_B18x Ile22_Tyr40 (C37S) (human, UniProt Q02223)
T3 construct: limits and substitution as printed in the sample name
T3 yeast-displayed fusion (looked up): IPCQLRCSSNTPPLTSQRY

T4: BCMA_B22x Arg27_Tyr40 (C37S) (human, UniProt Q02223)
T4 construct: limits and substitution as printed in the sample name
T4 yeast-displayed fusion (looked up): RCSSNTPPLTSQRY

T5: BCMA_B20x Arg27_Ala43 (C41S) (human, UniProt Q02223)
T5 construct: limits and substitution as printed in the sample name
T5 yeast-displayed fusion (looked up): RCSSNTPPLTCQRYSNA

T6: BCMA_B7x Met1_Tyr40 (human, UniProt Q02223)
T6 construct: limits given in the sample name
T6 yeast-displayed fusion (looked up): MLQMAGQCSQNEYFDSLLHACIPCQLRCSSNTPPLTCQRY

T7: BCMA_B19x Arg27_Ala43 (human, UniProt Q02223)
T7 construct: limits given in the sample name
T7 yeast-displayed fusion (looked up): RCSSNTPPLTCQRYCNA

T8: hBCMA fragment Gly6-Tyr40 displayed on yeast (Aga2-HA-(hBCMA)-MYC) (human, UniProt Q02223 6-40)
T8 construct: range 6-40; not shown: Aga2-HA N-terminal fusion partner of the pPNL6 yeast display vector; C-terminal MYC tag
T8 chain (looked up): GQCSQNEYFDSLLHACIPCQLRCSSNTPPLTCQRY

T9: BCMA_B9x Met1_Asp15 (human, UniProt Q02223)
T9 construct: limits given in the sample name
T9 yeast-displayed fusion (looked up): MLQMAGQCSQNEYFD

T10: BCMA_B17x Ile22_Tyr40 (human, UniProt Q02223)
T10 construct: limits given in the sample name
T10 yeast-displayed fusion (looked up): IPCQLRCSSNTPPLTCQRY

T11: BCMA_B2x Gly6_Ala54 (human, UniProt Q02223)
T11 construct: limits given in the sample name
T11 yeast-displayed fusion (looked up): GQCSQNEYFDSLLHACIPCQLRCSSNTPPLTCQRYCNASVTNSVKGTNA

T12: BCMA_B14x Gly6_Pro23 (C21S) (human, UniProt Q02223)
T12 construct: limits and substitution as printed in the sample name
T12 yeast-displayed fusion (looked up): GQCSQNEYFDSLLHASIP

T13: full-length hBCMA-ECD displayed on yeast (Aga2-HA-(hBCMA)-MYC) (human, UniProt Q02223 1-54)
T13 construct: range 1-54; stands here as the molecule on which the mapped regions are counted; also called hBCMA ecto-domain (ECD); not shown: Aga2-HA N-terminal fusion partner of the pPNL6 yeast display vector; C-terminal MYC tag
T13 sequence (looked up): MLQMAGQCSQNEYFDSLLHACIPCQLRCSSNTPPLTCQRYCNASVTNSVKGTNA

T14: BCMA_B21x Arg27_Tyr40 (human, UniProt Q02223)
T14 construct: limits given in the sample name
T14 yeast-displayed fusion (looked up): RCSSNTPPLTCQRY

T15: hBCMA fragment Gly6-Pro23 displayed on yeast (Aga2-HA-(hBCMA)-MYC) (human, UniProt Q02223 6-23)
T15 construct: range 6-23; not shown: Aga2-HA N-terminal fusion partner of the pPNL6 yeast display vector; C-terminal MYC tag
T15 chain (looked up): GQCSQNEYFDSLLHACIP

T16: BCMA_B16x Ile22_Ala43 (C41S) (human, UniProt Q02223)
T16 construct: limits and substitution as printed in the sample name
T16 yeast-displayed fusion (looked up): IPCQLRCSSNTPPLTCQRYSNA


Experiments:
[1] = biological target: T1, BCMA_B5x Gln38_Ala54; assay: yeast cell ELISA, sample BCMA_B5x Gln38_Ala54
Experimental: (§1) The YSD vector (pPNL6) was from The Pacific Northwest National Laboratory, USA. […] The HRP activity was assayed with substrate TMB (tetramethyl benzidine) according to the manufacture's conditions and read at OD₄₅₀.
(§2) The assays were performed as described in the Materials and Method, and OD₄₅₀ was measured. Note that OD₄₅₀ reads equal or less than 0.100 were scored as zero for clarity.

[2] = biological target: T2, BCMA_B15x Ile22_Ala43; assay: yeast cell ELISA, sample BCMA_B15x Ile22_Ala43
Experimental: as §1, §2

[3] = biological target: T3, BCMA_B18x Ile22_Tyr40 (C37S); assay: yeast cell ELISA, sample BCMA_B18x Ile22_Tyr40 (C37S)
Experimental: as §1, §2

[4] = biological target: T4, BCMA_B22x Arg27_Tyr40 (C37S); assay: yeast cell ELISA, sample BCMA_B22x Arg27_Tyr40 (C37S)
Experimental: as §1, §2

[5] = biological target: T5, BCMA_B20x Arg27_Ala43 (C41S); assay: yeast cell ELISA, sample BCMA_B20x Arg27_Ala43 (C41S)
Experimental: as §1, §2

[6] = biological target: T6, BCMA_B7x Met1_Tyr40; assay: yeast cell ELISA, sample BCMA_B7x Met1_Tyr40
Experimental: as §1, §2

[7] = biological target: T7, BCMA_B19x Arg27_Ala43; assay: yeast cell ELISA, sample BCMA_B19x Arg27_Ala43
Experimental: as §1, §2

[8] = biological target: T8, hBCMA fragment Gly6-Tyr40 displayed on …; assay: yeast cell ELISA, sample BCMA_B11x Gly6_Tyr40
Experimental: as §1, §2

[9] = biological target: T9, BCMA_B9x Met1_Asp15; assay: yeast cell ELISA, sample BCMA_B9x Met1_Asp15
Experimental: as §1, §2

[10] = biological target: T10, BCMA_B17x Ile22_Tyr40; assay: yeast cell ELISA, sample BCMA_B17x Ile22_Tyr40
Experimental: as §1, §2

[11] = biological target: T11, BCMA_B2x Gly6_Ala54; assay: yeast cell ELISA, sample BCMA_B2x Gly6_Ala54
Experimental: as §1, §2

[12] = biological target: T12, BCMA_B14x Gly6_Pro23 (C21S); assay: yeast cell ELISA, sample BCMA_B14x Gly6_Pro23 (C21S)
Experimental: as §1, §2

[13] = biological target: T13, full-length hBCMA-ECD displayed on …; assay: yeast cell ELISA, sample BCMA_B1x Met1_Ala54
Experimental: as §1, §2

[14] = biological target: T14, BCMA_B21x Arg27_Tyr40; assay: yeast cell ELISA, sample BCMA_B21x Arg27_Tyr40
Experimental: as §1, §2

[15] = biological target: T15, hBCMA fragment Gly6-Pro23 displayed on …; assay: yeast cell ELISA, sample BCMA_B12x Gly6_Pro23
Experimental: as §1, §2

[16] = biological target: T16, BCMA_B16x Ile22_Ala43 (C41S); assay: yeast cell ELISA, sample BCMA_B16x Ile22_Ala43 (C41S)
Experimental: as §1, §2

| Binder | binding result [1] | binding result [2] | binding result [3] | binding result [4] | binding result [5] | OD450 [6] | binding result [7] | OD450 [8] | binding result [9] | binding result [10] | OD450 [11] | binding result [12] | OD450 [13] | binding result [14] | binding result [15] | binding result [16] | OD450 [15] |
| --- | --- | --- | --- | --- | --- | --- | --- | --- | --- | --- | --- | --- | --- | --- | --- | --- | --- |
| hBCMA-H4 (VHH, single biotin on the C-terminal AviTag, also called VHH-H4; not shown: C-terminal His tag and AviTag biotinylation signal from pMRO vector) VHH: QVQLVESGGGLVQPGGSLRLSCAASGDSFGAYAMGWYRQAPGKQRELVAAISSAGNTFYRDSVKGRFTVSRNNAKNAMYLQMDRLKPEDTAVYQCNGAPWADEPVKVWNWGLGTQVTVSS | no binding | no binding | no binding | no binding | no binding | 1.39 | no binding | 2.42 | no binding | no binding | 2.16 | no binding | 2.78 | no binding | no binding | no binding | – |
| hBCMA-H2 (VHH, single biotin on the C-terminal AviTag, also called VHH-H2; not shown: C-terminal His tag and AviTag biotinylation signal from pMRO vector) VHH: QVKAEESGGGLVRPGDSLRLTCTISGRTSNNFVMAWFRRTPGKEREYVATRVWSGSTPYYHDSVKGRFTISIDDDKNTAYLQMNSLKPEDTAVYYCAATKDIMSRSYDYWGLGTQVTVSS | no binding | no binding | no binding | no binding | no binding | 3.02 | no binding | 3.5 | no binding | no binding | 2.92 | no binding | 2.12 | no binding | – | no binding | 2.82 |
| hBCMA-VcMRo3 (V3) (VHH, single biotin on the C-terminal AviTag, also called hBCMA-V3; not shown: C-terminal His tag and AviTag biotinylation signal from pMRO vector) VHH: EVQLEQSGGGLVQTGDSLRLTCTIPGRASNHFVMAWFRRAPGKEREFVATRVWSGGSPYYSDSVKGRFAIAIDNAKNTAYLQMNSLKPEDTAVYYCAATKDIMSRSYDYWGLGTQVTVSS | no binding | no binding | no binding | no binding | no binding | 1.62 | no binding | 2.74 | no binding | no binding | 2.53 | no binding | 3.09 | no binding | – | no binding | 2.08 |
| hBCMA-E7 (VHH, single biotin on the C-terminal AviTag, Llama VHH made in E. coli BL21(DE3), IMAC purified, monomeric SEC fraction used; also called VHH-E7; VHH # 1-B1; not shown: C-terminal His tag and AviTag biotinylation signal from pMRO vector) VHH: QVQLVESGGGLVQTGDSLRLACTISGRATDHFVMAWFRRAPGKEREYVATRVWSGGSPYYLDSVKGRFAIAIDNAKNTAYLQMNNLKPEDTAVYYCAATKDIMSRSYDYWGLGTQVTVSS | no binding | no binding | no binding | no binding | no binding | 2.64 | no binding | 3.57 | no binding | no binding | 2.92 | no binding | 2.52 | no binding | – | no binding | 2.39 |
| hBCMA-A6 (VHH, single biotin on the C-terminal AviTag, also called VHH-A6; not shown: C-terminal His tag and AviTag biotinylation signal from pMRO vector) VHH: QVQLVESGGGLVQPGGSLRLSCVASGSIFDAYNMGWYRQAPGKQRELVAAISSAGTTFYRDSVKGRFTVSRNNAKNTMYLQMDRLRPEDTAVYDCNGAPWGDAPVKVEDWGQGTQVTVSS | no binding | no binding | no binding | no binding | no binding | 1.84 | no binding | 2.44 | no binding | no binding | 3.08 | no binding | 1.88 | no binding | no binding | no binding | – |
| hBCMA-VcMRo8(VF7/VF8) (VHH, single biotin on the C-terminal AviTag, also called V8; hBCMA-V8; not shown: C-terminal His tag and AviTag biotinylation signal from pMRO vector) VHH: QVQLVESGGGLVQPGGSLRLSCAASGTIFSRNALAWFRQAPGKQRELVAHITIGGTTVYKDSVKGRFTISRDNAKNTVYLQMDALKPEDTAVYYCNADPEGSWNWVRRGDYWGQGTQVTVS | no binding | no binding | no binding | no binding | no binding | 2.37 | no binding | 2.61 | no binding | no binding | 2.74 | no binding | 2.45 | no binding | no binding | no binding | – |
